In the Immune Epitope Database (IEDB):

Assays:
HLA-A*24:03 = assay: IEDB peptide-MHC binding, purified MHC/direct/fluorescence; filed as Kd, often an IC50 or EC50 that approximates it; ≥ and ≤ were set here for values at or beyond the usual limits of such assays
HLA-A*23:01 = assay: as above
HLA-B*35:01 = assay: IEDB peptide-MHC binding, purified MHC/competitive/fluorescence; filed as Kd, often an IC50 or EC50 that approximates it; ≥ and ≤ were set here for values at or beyond the usual limits of such assays
HLA-B*51:01 = assay: as above
HLA-B*07:02 [1] = assay: as above
HLA-B*08:01 = assay: as above; settings: source organism: Yersinia pestis Nepal516
HLA-C*05:01 = assay: IEDB peptide-MHC binding, purified MHC/direct/fluorescence; filed as Kd, often an IC50 or EC50 that approximates it; ≥ and ≤ were set here for values at or beyond the usual limits of such assays
HLA-B*57:01 [2] = assay: IEDB peptide-MHC binding, purified MHC/competitive/fluorescence; filed as Kd, often an IC50 or EC50 that approximates it; ≥ and ≤ were set here for values at or beyond the usual limits of such assays
HLA-B*27:03 = assay: as above
HLA-A*02:01 [3] = assay: as above
HLA-B*46:01 [4] = assay: as above
HLA-B*18:01 [5] = assay: as above
HLA-A*26:01 = assay: as above
HLA-B*15:17 = assay: as above
HLA-A*69:01 = assay: as above; settings: source organism: Orthohantavirus puumalaense
HLA-B*39:01 = assay: as above
HLA-B*15:01 = assay: as above
HLA-A*02:12 = assay: IEDB peptide-MHC binding, purified MHC/direct/fluorescence; filed as Kd, often an IC50 or EC50 that approximates it; ≥ and ≤ were set here for values at or beyond the usual limits of such assays
HLA-A*68:02 = assay: as above
HLA-A*29:02 = assay: as above
HLA-A*02:03 = assay: as above
HLA-B*27:05 = assay: as above
HLA-A*02:16 = assay: as above
HLA-A*02:19 = assay: as above
HLA-A*02:11 = assay: as above
HLA-A*03:01 = assay: as above
HLA-A*01:01 = assay: as above; settings: source organism: Ebola virus - Gabon (1994-1997)
HLA-B*46:01 [6] = assay: as above; settings: source organism: West Nile virus
HLA-B*57:01 [7] = assay: as above; settings: source organism: West Nile virus
HLA-A*31:01 = assay: as above; settings: source organism: West Nile virus
HLA-C*15:02 = assay: as above; settings: source organism: West Nile virus
HLA-B*48:01 = assay: as above; settings: source organism: West Nile virus
HLA-B*18:01 [8] = assay: as above; settings: source organism: West Nile virus
HLA-B*15:09 = assay: as above; settings: source organism: West Nile virus strain PTRoxo
HLA-C*12:03 = assay: as above; settings: source organism: West Nile virus
HLA-B*40:01 = assay: as above; settings: source organism: West Nile virus
HLA-B*44:02 = assay: as above; settings: source organism: West Nile virus
HLA-B*07:02 [9] = assay: as above; settings: source organism: West Nile virus
HLA-B*58:01 = assay: as above; settings: source organism: West Nile virus
HLA-A*02:01 [10] = assay: IEDB peptide-MHC binding, purified MHC/competitive/fluorescence; ≥ and ≤ were set here for values at or beyond the usual limits of such assays; settings: source organism: West Nile virus NY-99
[11] = source organism: Mycobacterium tuberculosis str. Haarlem
[12] = source organism: Yersinia pestis Nepal516
[13] = source organism: Orthohantavirus puumalaense
[14] = source organism: Zaire ebolavirus
[15] = source organism: Influenza A virus (A/Leningrad/1954/1(H1N1))
[16] = source organism: Bacillus anthracis str. A0488
[17] = source organism: West Nile virus

AYLFTPLFK was tested, and the Kd (HLA-A*24:03; [11]) was 0.185 µM and the Kd (HLA-A*23:01; [11]) was 0.356 µM.
Work on EPLAVIASL yielded a Kd (HLA-B*35:01; [12]) of 0.0017 µM, a Kd (HLA-B*51:01; [12]) of at least 20 µM and a Kd (HLA-B*07:02 [1]; [12]) of at least 20 µM.
Work on FPIKRISAV yielded a Kd (HLA-B*35:01; [12]) of 0.0004 µM, a Kd (HLA-B*51:01; [12]) of 0.268 µM and a Kd (HLA-B*08:01) of 0.0512 µM. For the same sequence, the Kd (HLA-C*05:01; [12]) was at least 20 µM.
With LRYGNVLDV the Kd (HLA-B*57:01 [2]; [13]) was at least 20 µM, the Kd (HLA-B*27:03; [13]) was at least 20 µM and the Kd (HLA-A*02:01 [3]; [13]) was at least 20 µM. For the same sequence, the Kd (HLA-B*46:01 [4]; [13]) was at least 20 µM, the Kd (HLA-B*18:01 [5]; [13]) was at least 20 µM and the Kd (HLA-A*26:01; [13]) was at least 20 µM. It also gave a Kd (HLA-B*15:17; [13]) of at least 20 µM, a Kd (HLA-B*51:01; [13]) of at least 20 µM and a Kd (HLA-A*69:01) of at least 20 µM. For the same sequence, the Kd (HLA-B*39:01; [13]) was at least 20 µM, the Kd (HLA-B*15:01; [13]) was at least 20 µM and the Kd (HLA-A*02:12; source organism: Choclo virus) was at least 20 µM. It also gave a Kd (HLA-A*24:03; source organism: Choclo virus) of at least 20 µM, a Kd (HLA-A*68:02; source organism: Choclo virus) of at least 20 µM and a Kd (HLA-A*29:02; source organism: Choclo virus) of at least 20 µM. It also gave a Kd (HLA-A*02:03; source organism: Choclo virus) of at least 20 µM, a Kd (HLA-B*27:05; source organism: Isla Vista hantavirus) of 0.951 µM and a Kd (HLA-A*02:16; source organism: Choclo virus) of at least 20 µM. The Kd (HLA-A*02:19; source organism: Choclo virus) was at least 20 µM, the Kd (HLA-A*02:11; source organism: Choclo virus) was at least 20 µM and the Kd (HLA-A*03:01; source organism: Choclo virus) was at least 20 µM. For the same sequence, the Kd (HLA-A*23:01; source organism: Choclo virus) was at least 20 µM.
With LSDLCNFLV the Kd (HLA-B*57:01 [2]; [14]) was at least 20 µM, the Kd (HLA-B*27:03; [14]) was at least 20 µM and the Kd (HLA-A*02:01 [3]; [14]) was at least 20 µM. For the same sequence, the Kd (HLA-B*46:01 [4]; [14]) was at least 20 µM, the Kd (HLA-B*18:01 [5]; [14]) was at least 20 µM and the Kd (HLA-A*26:01; [14]) was at least 20 µM. For the same sequence, the Kd (HLA-B*15:17; [14]) was at least 20 µM, the Kd (HLA-B*51:01; [14]) was at least 20 µM and the Kd (HLA-B*39:01; [14]) was at least 20 µM. It also gave a Kd (HLA-B*15:01; [14]) of at least 20 µM, a Kd (HLA-A*02:12; [14]) of at least 20 µM and a Kd (HLA-A*24:03; [14]) of at least 20 µM. The Kd (HLA-A*68:02; [14]) was at least 20 µM, the Kd (HLA-A*29:02; [14]) was at least 20 µM and the Kd (HLA-C*05:01; [14]) was 0.013 µM. For the same sequence, the Kd (HLA-A*02:03; [14]) was at least 20 µM, the Kd (HLA-A*01:01) was 0.0671 µM and the Kd (HLA-A*02:16; [14]) was at least 20 µM. The Kd (HLA-A*02:19; [14]) was at least 20 µM, the Kd (HLA-A*02:11; [14]) was at least 20 µM and the Kd (HLA-A*03:01; [14]) was at least 20 µM. The Kd (HLA-A*23:01; [14]) was at least 20 µM.
LVSLGAISF gave a Kd (HLA-B*35:01; [15]) of 0.29 µM and a Kd (HLA-B*07:02 [1]; [15]) of at least 20 µM.
MTVFSYKAF showed a Kd (HLA-B*35:01; [16]) of 0.154 µM and a Kd (HLA-B*15:01; [16]) of 0.19 µM.
TVSPSAPTY was tested, and the Kd (HLA-B*35:01; [17]) was at most 0.0001 µM and the Kd (HLA-B*46:01 [6]) was at least 20 µM.
YTMDGEYRL gave a Kd (HLA-A*02:01 [3]; [17]) of 0.00137 µM, a Kd (HLA-B*57:01 [7]) of at least 20 µM and a Kd (HLA-A*31:01) of at least 20 µM. It also gave a Kd (HLA-C*15:02) of 0.085 µM, a Kd (HLA-B*46:01 [6]) of at least 20 µM and a Kd (HLA-B*48:01) of at least 20 µM. It also gave a Kd (HLA-B*18:01 [8]) of at least 20 µM, a Kd (HLA-B*15:09) of at least 20 µM and a Kd (HLA-B*27:05; [17]) of at least 20 µM. It also gave a Kd (HLA-C*12:03) of 0.347 µM, a Kd (HLA-B*40:01) of at least 20 µM and a Kd (HLA-B*44:02) of at least 20 µM. It also gave a Kd (HLA-B*07:02 [9]) of at least 20 µM, a Kd (HLA-A*03:01; [17]) of at least 20 µM and a Kd (HLA-B*58:01) of at least 20 µM. For the same sequence, the IC50 (HLA-A*02:01 [10]) was 0.291 µM.
